Test results from patent publication US20170363643A1.
Blank lines part the entries; values can stand above or below the substance they belong to.

Columns and labels:
[1] = target: His-tagged recombinant human SMN protein (ProteinTech, catalog # ag14333) (human) (UniProt Q16637); assay: BLI (BLItz), His-tagged SMN immobilised on the biosensor tip, antibody in solution
[2] = target: His-tagged recombinant human SMN protein (ProteinTech, catalog # ag14333) (human) (UniProt Q16637); assay: Erenna sandwich assay, capture PT 60154-1-Ig; SMN 10 pg/mL, MPs 5 µg/well, Det Ab 50 ng/mL, Cap Ab/MP 12.5 µg/mg
[3] = target: His-tagged recombinant human SMN protein (ProteinTech, catalog # ag14333) (human) (UniProt Q16637); assay: Erenna sandwich assay, capture PT 60154-1-Ig; SMN 10 pg/mL, MPs 10 µg/well, Det Ab 500 ng/mL, Cap Ab/MP 12.5 µg/mg
[4] = target: His-tagged recombinant human SMN protein (ProteinTech, catalog # ag14333) (human) (UniProt Q16637); assay: Erenna sandwich assay, capture PT 60154-1-Ig; SMN 10 pg/mL, MPs 10 µg/well, Det Ab 1000 ng/mL, Cap Ab/MP 12.5 µg/mg
[5] = target: His-tagged recombinant human SMN protein (ProteinTech, catalog # ag14333) (human) (UniProt Q16637); assay: Erenna sandwich assay, capture PT 60154-1-Ig; SMN 10 pg/mL, MPs 5 µg/well, Det Ab 500 ng/mL, Cap Ab/MP 12.5 µg/mg
[6] = target: His-tagged recombinant human SMN protein (ProteinTech, catalog # ag14333) (human) (UniProt Q16637); assay: Erenna sandwich assay, capture PT 60154-1-Ig; SMN 10 pg/mL, MPs 5 µg/well, Det Ab 100 ng/mL, Cap Ab/MP 12.5 µg/mg
[7] = target: His-tagged recombinant human SMN protein (ProteinTech, catalog # ag14333) (human) (UniProt Q16637); assay: Erenna sandwich assay, capture PT 60154-1-Ig; SMN 10 pg/mL, MPs 10 µg/well, Det Ab 500 ng/mL, Cap Ab/MP 25 µg/mg
[8] = target: His-tagged recombinant human SMN protein (ProteinTech, catalog # ag14333) (human) (UniProt Q16637); assay: Erenna sandwich assay, capture PT 60154-1-Ig; SMN 10 pg/mL, MPs 5 µg/well, Det Ab 500 ng/mL, Cap Ab/MP 25 µg/mg
[9] = target: His-tagged recombinant human SMN protein (ProteinTech, catalog # ag14333) (human) (UniProt Q16637); assay: Erenna sandwich assay, capture PT 60154-1-Ig; SMN 10 pg/mL, MPs 5 µg/well, Det Ab 100 ng/mL, Cap Ab/MP 25 µg/mg
[10] = target: His-tagged recombinant human SMN protein (ProteinTech, catalog # ag14333) (human) (UniProt Q16637); assay: Erenna sandwich assay, capture PT 60154-1-Ig; SMN 10 pg/mL, MPs 10 µg/well, Det Ab 1000 ng/mL, Cap Ab/MP 25 µg/mg
[11] = target: His-tagged recombinant human SMN protein (ProteinTech, catalog # ag14333) (human) (UniProt Q16637); assay: Erenna sandwich assay, capture PT 60154-1-Ig; SMN 10 pg/mL, MPs 5 µg/well, Det Ab 1000 ng/mL, Cap Ab/MP 25 µg/mg
[12] = target: His-tagged recombinant human SMN protein (ProteinTech, catalog # ag14333) (human) (UniProt Q16637); assay: Erenna sandwich assay, capture PT 60154-1-Ig; SMN 10 pg/mL, MPs 10 µg/well, Det Ab 100 ng/mL, Cap Ab/MP 12.5 µg/mg
[13] = target: His-tagged recombinant human SMN protein (ProteinTech, catalog # ag14333) (human) (UniProt Q16637); assay: Erenna sandwich assay, capture PT 60154-1-Ig; SMN 10 pg/mL, MPs 10 µg/well, Det Ab 100 ng/mL, Cap Ab/MP 25 µg/mg
[14] = target: His-tagged recombinant human SMN protein (ProteinTech, catalog # ag14333) (human) (UniProt Q16637); assay: Erenna sandwich assay, capture PT 60154-1-Ig; SMN 10 pg/mL, MPs 5 µg/well, Det Ab 1000 ng/mL, Cap Ab/MP 12.5 µg/mg
[15] = target: His-tagged recombinant human SMN protein (ProteinTech, catalog # ag14333) (human) (UniProt Q16637); assay: Erenna sandwich assay, capture PT 60154-1-Ig; SMN 10 pg/mL, MPs 5 µg/well, Det Ab 50 ng/mL, Cap Ab/MP 25 µg/mg
[16] = target: His-tagged recombinant human SMN protein (ProteinTech, catalog # ag14333) (human) (UniProt Q16637); assay: Erenna sandwich assay, capture PT 60154-1-Ig; SMN 10 pg/mL, MPs 10 µg/well, Det Ab 50 ng/mL, Cap Ab/MP 25 µg/mg
[17] = target: His-tagged recombinant human SMN protein (ProteinTech, catalog # ag14333) (human) (UniProt Q16637); assay: Erenna sandwich assay, capture PT 60154-1-Ig; SMN 10 pg/mL, MPs 10 µg/well, Det Ab 50 ng/mL, Cap Ab/MP 12.5 µg/mg

UniProt Q16637, sequence (Q16637 whole entry): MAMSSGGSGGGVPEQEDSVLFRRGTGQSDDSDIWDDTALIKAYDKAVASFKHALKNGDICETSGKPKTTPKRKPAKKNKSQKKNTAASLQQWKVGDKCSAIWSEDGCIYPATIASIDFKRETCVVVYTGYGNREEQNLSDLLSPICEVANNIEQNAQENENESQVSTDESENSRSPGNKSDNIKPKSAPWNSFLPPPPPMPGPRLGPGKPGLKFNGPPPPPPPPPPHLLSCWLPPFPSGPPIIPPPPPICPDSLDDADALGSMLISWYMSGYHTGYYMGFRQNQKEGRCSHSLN

kon [1]: 637000 M⁻¹ s⁻¹
Substance: BD Biosciences anti-SMN (catalog #610647) (antibody)

Kd [1]: < 100 pM
koff [1]: < 1e-07 s⁻¹
kon [1]: 12300 M⁻¹ s⁻¹
Substance: Enzo anti-SMN1 (catalog # ADI-NBA-202-200) (antibody)

detected events (DE) (detected events) [2]: 231
detected events (DE) (detected events) [3]: 2180
detected events (DE) (detected events) [4]: 3720
detected events (DE) (detected events) [5]: 1960
detected events (DE) (detected events) [6]: 501
detected events (DE) (detected events) [7]: 2140
detected events (DE) (detected events) [8]: 2040
Kd [1]: < 1 pM
koff [1]: < 1e-07 s⁻¹
kon [1]: 105000 M⁻¹ s⁻¹
detected events (DE) (detected events) [9]: 481
detected events (DE) (detected events) [10]: 3370
detected events (DE) (detected events) [11]: 3440
detected events (DE) (detected events) [12]: 523
detected events (DE) (detected events) [13]: 505
detected events (DE) (detected events) [14]: 3570
detected events (DE) (detected events) [15]: 256
detected events (DE) (detected events) [16]: 269
detected events (DE) (detected events) [17]: 302
Substance: Millipore anti-SMN2 (catalog # MABE230) (antibody)

Kd [1]: < 1000 pM
koff [1]: < 1e-07 s⁻¹
kon [1]: 884 M⁻¹ s⁻¹
Substance: ProteinTech anti-SMN2 (catalog #60154-2-Ig) (antibody)
